Data as given in patent US20110195911A1, “SYNTHETIC ANALOGS OF THE JUXTAMEMBRANE DOMAIN OF IGF1R AND USES THEREOF” (THE UNITED STATES OF AMERICA,AS REPRESENTED BY THE …, priority 2008, published 2011).
Where no end group is shown, it is not given here. [ ]: non-standard residue; d: D form. The star is where a group is joined. Palmitoyl = CCCCCCCCCCCCCCCC(=O)*

Molecular target: Insulin-like growth factor 1 receptor (IGF1R) (UniProt P08069 31-1367, limits assumed)
Test: cell-based or functional assay

Chain of Insulin-like growth factor 1 receptor (IGF1R) (P08069 31-1367 limits assumed): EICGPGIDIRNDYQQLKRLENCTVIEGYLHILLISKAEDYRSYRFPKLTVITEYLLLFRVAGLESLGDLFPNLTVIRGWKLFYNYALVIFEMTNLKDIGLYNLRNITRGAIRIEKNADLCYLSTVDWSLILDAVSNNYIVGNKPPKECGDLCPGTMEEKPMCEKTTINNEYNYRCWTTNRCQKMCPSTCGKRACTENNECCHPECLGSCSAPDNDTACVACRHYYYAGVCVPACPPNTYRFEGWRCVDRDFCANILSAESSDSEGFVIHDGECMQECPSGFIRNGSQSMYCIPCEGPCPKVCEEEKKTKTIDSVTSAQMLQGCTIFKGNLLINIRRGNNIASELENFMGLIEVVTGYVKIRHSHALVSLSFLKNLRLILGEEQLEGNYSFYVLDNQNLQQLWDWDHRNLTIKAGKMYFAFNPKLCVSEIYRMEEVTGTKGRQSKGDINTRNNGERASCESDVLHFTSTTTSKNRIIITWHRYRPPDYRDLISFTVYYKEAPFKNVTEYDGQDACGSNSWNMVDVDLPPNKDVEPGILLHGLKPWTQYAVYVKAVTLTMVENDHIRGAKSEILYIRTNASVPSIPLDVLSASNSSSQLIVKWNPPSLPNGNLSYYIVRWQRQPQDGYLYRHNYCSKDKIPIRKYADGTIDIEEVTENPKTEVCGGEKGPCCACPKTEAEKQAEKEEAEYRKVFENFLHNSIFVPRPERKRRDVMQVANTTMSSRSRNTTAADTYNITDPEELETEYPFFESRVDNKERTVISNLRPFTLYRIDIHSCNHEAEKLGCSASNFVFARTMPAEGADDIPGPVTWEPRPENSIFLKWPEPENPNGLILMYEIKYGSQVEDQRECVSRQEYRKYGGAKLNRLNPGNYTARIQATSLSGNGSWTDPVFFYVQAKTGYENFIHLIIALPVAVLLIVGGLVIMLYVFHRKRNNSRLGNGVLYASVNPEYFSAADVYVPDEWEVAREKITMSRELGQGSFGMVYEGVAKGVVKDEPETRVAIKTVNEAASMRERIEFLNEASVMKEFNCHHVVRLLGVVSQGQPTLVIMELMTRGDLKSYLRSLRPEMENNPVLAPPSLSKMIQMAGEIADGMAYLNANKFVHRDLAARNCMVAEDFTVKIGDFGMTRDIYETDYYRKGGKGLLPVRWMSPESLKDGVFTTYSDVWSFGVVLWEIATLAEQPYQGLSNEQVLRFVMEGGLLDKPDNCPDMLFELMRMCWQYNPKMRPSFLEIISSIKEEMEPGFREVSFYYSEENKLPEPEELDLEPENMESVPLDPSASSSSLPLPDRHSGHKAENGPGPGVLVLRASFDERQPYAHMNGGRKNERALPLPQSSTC

Binder | GI50 (µM), MTT assay, MCF-7 cells | TGI (µM), MTT assay, MCF-7 cells
Palmitoyl-NSRLGNGVLY-NH2 (SMILES CCCCCCCCCCCCCCCC(=O)N[C@@H](CC(N)=O)C(=O)N[C@@H](CO)C(=O)N[C@@H](CCCNC(=N)N)C(=O)N[C@@H](CC(C)C)C(=O)NCC(=O)N[C@@H](CC(N)=O)C(=O)NCC(=O)N[C@H](C(=O)N[C@@H](CC(C)C)C(=O)N[C@@H](Cc1ccc(O)cc1)C(N)=O)C(C)C) [peptide 17 (Pal-NSRLGNGVLY-NH2)] | 0.2 µM | 1.5 µM
Palmitoyl-HRKRNNSRLGNGVLYASVN-NH2 (SMILES CCCCCCCCCCCCCCCC(=O)N[C@@H](Cc1c[nH]cn1)C(=O)N[C@@H](CCCNC(=N)N)C(=O)N[C@@H](CCCCN)C(=O)N[C@@H](CCCNC(=N)N)C(=O)N[C@@H](CC(N)=O)C(=O)N[C@@H](CC(N)=O)C(=O)N[C@@H](CO)C(=O)N[C@@H](CCCNC(=N)N)C(=O)N[C@@H](CC(C)C)C(=O)NCC(=O)N[C@@H](CC(N)=O)C(=O)NCC(=O)N[C@H](C(=O)N[C@@H](CC(C)C)C(=O)N[C@@H](Cc1ccc(O)cc1)C(=O)N[C@@H](C)C(=O)N[C@@H](CO)C(=O)N[C@H](C(=O)N[C@@H](CC(N)=O)C(N)=O)C(C)C)C(C)C) [peptide 3 (Pal-HRKRNNSRLGNGVLYASVN-NH2)] | 1 µM | 1.55 µM
Palmitoyl-NNSRLGNGVLY-NH2 (SMILES CCCCCCCCCCCCCCCC(=O)N[C@@H](CC(N)=O)C(=O)N[C@@H](CC(N)=O)C(=O)N[C@@H](CO)C(=O)N[C@@H](CCCNC(=N)N)C(=O)N[C@@H](CC(C)C)C(=O)NCC(=O)N[C@@H](CC(N)=O)C(=O)NCC(=O)N[C@H](C(=O)N[C@@H](CC(C)C)C(=O)N[C@@H](Cc1ccc(O)cc1)C(N)=O)C(C)C) [peptide 15 (Pal-NNSRLGNGVLY-NH2)] | 0.1 µM | 1.5 µM
Ac-[dY][dL][dV]G[dN]G[dL][dR][dS][dN][dN][dR][dK](Palmitoyl) [peptide 18 (Ac-YLVGNGLRSNNRK-(ε-Pal)), retro-inverso version of peptide 27] | 0.04 µM | 0.4 µM
Palmitoyl-HRKRNNSRLGNGVLYASVNPEYFSAA-NH2 (SMILES CCCCCCCCCCCCCCCC(=O)N[C@@H](Cc1c[nH]cn1)C(=O)N[C@@H](CCCNC(=N)N)C(=O)N[C@@H](CCCCN)C(=O)N[C@@H](CCCNC(=N)N)C(=O)N[C@@H](CC(N)=O)C(=O)N[C@@H](CC(N)=O)C(=O)N[C@@H](CO)C(=O)N[C@@H](CCCNC(=N)N)C(=O)N[C@@H](CC(C)C)C(=O)NCC(=O)N[C@@H](CC(N)=O)C(=O)NCC(=O)N[C@H](C(=O)N[C@@H](CC(C)C)C(=O)N[C@@H](Cc1ccc(O)cc1)C(=O)N[C@@H](C)C(=O)N[C@@H](CO)C(=O)N[C@H](C(=O)N[C@@H](CC(N)=O)C(=O)N1CCC[C@H]1C(=O)N[C@@H](CCC(=O)O)C(=O)N[C@@H](Cc1ccc(O)cc1)C(=O)N[C@@H](Cc1ccccc1)C(=O)N[C@@H](CO)C(=O)N[C@@H](C)C(=O)N[C@@H](C)C(N)=O)C(C)C)C(C)C) [peptide 4 (Pal-HRKRNNSRLGNGVLYASVNPEYFSAA-NH2)] | 1 µM | > 5 µM
Palmitoyl-RLGNGVLY-NH2 (SMILES CCCCCCCCCCCCCCCC(=O)N[C@@H](CCCNC(=N)N)C(=O)N[C@@H](CC(C)C)C(=O)NCC(=O)N[C@@H](CC(N)=O)C(=O)NCC(=O)N[C@H](C(=O)N[C@@H](CC(C)C)C(=O)N[C@@H](Cc1ccc(O)cc1)C(N)=O)C(C)C) [peptide 20 (Pal-RLGNGVLY-NH2)] | 0.2 µM | > 5 µM
Palmitoyl-SRLGNGVLY-NH2 (SMILES CCCCCCCCCCCCCCCC(=O)N[C@@H](CO)C(=O)N[C@@H](CCCNC(=N)N)C(=O)N[C@@H](CC(C)C)C(=O)NCC(=O)N[C@@H](CC(N)=O)C(=O)NCC(=O)N[C@H](C(=O)N[C@@H](CC(C)C)C(=O)N[C@@H](Cc1ccc(O)cc1)C(N)=O)C(C)C) [peptide 19 (Pal-SRLGNGVLY-NH2)] | 0.15 µM | 2 µM
Palmitoyl-RNNSRLGNGVLY-NH2 (SMILES CCCCCCCCCCCCCCCC(=O)N[C@@H](CCCNC(=N)N)C(=O)N[C@@H](CC(N)=O)C(=O)N[C@@H](CC(N)=O)C(=O)N[C@@H](CO)C(=O)N[C@@H](CCCNC(=N)N)C(=O)N[C@@H](CC(C)C)C(=O)NCC(=O)N[C@@H](CC(N)=O)C(=O)NCC(=O)N[C@H](C(=O)N[C@@H](CC(C)C)C(=O)N[C@@H](Cc1ccc(O)cc1)C(N)=O)C(C)C) [peptide 16 (Pal-RNNSRLGNGVLY-NH2)] | 0.07 µM | 0.5 µM
Palmitoyl-[dV][dS][dA][dY][dL][dV]G[dN]G[dL][dR][dS][dN][dN][dR]-NH2 (SMILES CCCCCCCCCCCCCCCC(=O)N[C@@H](C(=O)N[C@H](CO)C(=O)N[C@H](C)C(=O)N[C@H](Cc1ccc(O)cc1)C(=O)N[C@H](CC(C)C)C(=O)N[C@@H](C(=O)NCC(=O)N[C@H](CC(N)=O)C(=O)NCC(=O)N[C@H](CC(C)C)C(=O)N[C@H](CCCNC(=N)N)C(=O)N[C@H](CO)C(=O)N[C@H](CC(N)=O)C(=O)N[C@H](CC(N)=O)C(=O)N[C@H](CCCNC(=N)N)C(N)=O)C(C)C)C(C)C) [peptide 21 (Pal-VSAYLVGNGLRSNNR-NH2)] | 0.04 µM | 0.1 µM

Further lines, results first:

GI50 (µM), MTT assay, MCF-7 cells | TGI (µM), MTT assay, MCF-7 cells | Binder
0.04 µM | > 5 µM | Palmitoyl-RNNSRLGNGVLYAS-NH2 (not fully specified; printed as Pal-RNNSRLGNGVLYAS-NH2) [peptide 34 (Pal-RNNSRLGNGVLYAS-NH2)]
0.05 µM | 2.5 µM | Palmitoyl-RNNSRLGNGVLYASV-NH2 (not fully specified; printed as Pal-RNNSRLGNGVLYASV-NH2) [peptide 35 (Pal-RNNSRLGNGVLYASV-NH2)]
1.7 µM | 3.7 µM | Palmitoyl-RNNSRLGNGVL-NH2 (SMILES CCCCCCCCCCCCCCCC(=O)N[C@@H](CCCNC(=N)N)C(=O)N[C@@H](CC(N)=O)C(=O)N[C@@H](CC(N)=O)C(=O)N[C@@H](CO)C(=O)N[C@@H](CCCNC(=N)N)C(=O)N[C@@H](CC(C)C)C(=O)NCC(=O)N[C@@H](CC(N)=O)C(=O)NCC(=O)N[C@H](C(=O)N[C@@H](CC(C)C)C(N)=O)C(C)C) [peptide 30 (Pal-RNNSRLGNGVL-NH2)]
0.1 µM | 1.2 µM | Palmitoyl-RNNSRLGNGVLF-NH2 (SMILES CCCCCCCCCCCCCCCC(=O)N[C@@H](CCCNC(=N)N)C(=O)N[C@@H](CC(N)=O)C(=O)N[C@@H](CC(N)=O)C(=O)N[C@@H](CO)C(=O)N[C@@H](CCCNC(=N)N)C(=O)N[C@@H](CC(C)C)C(=O)NCC(=O)N[C@@H](CC(N)=O)C(=O)NCC(=O)N[C@H](C(=O)N[C@@H](CC(C)C)C(=O)N[C@@H](Cc1ccccc1)C(N)=O)C(C)C) [peptide 29 (Pal-RNNSRLGNGVLF-NH2)]
0.1 µM | > 5 µM | Palmitoyl-RNNSRLGNGVLYA-NH2 (not fully specified; printed as Pal-RNNSRLGNGVLYA-NH2) [peptide 33 (Pal-RNNSRLGNGVLYA-NH2)]
